Laboratory results taken from the supplement of paper PMC7125110.
± gives the standard error. Variants at the floor of the assay were thinned out.

B1: glmS ribozyme (parent)
chain: AUAAAAGCGCCAGAACUACAGAAAUGUAGUUGACGAGGAGGAGGUUUAUCGAAUUUUCGGCGGAUGCCUCCAAA

Columns and labels:
Conditions in all cases: with glucosamine-6-phosphate
glucosamine-6-phosphate [1] = variants of: B1; assay: self-cleavage kobs at 640 uM GlcN6P; higher = faster cleavage; RNA array
Procedure, shortened: (§1)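 E. coli RNA polymerase transcribed barcoded ribozyme variants in situ on sequenced MiSeq chips, which were tracked via a hybridised Cy3 probe at 37 °C. Tiles were imaged over ~14 h after glucosamine-6-phosphate (40 μM to 10 mM) in HEPES/KCl/Mg(OAc)2 buffer was flowed in. Normalised per-tile medians were fit to one- or two-exponential decays for kobs, and kcat and KM came from weighted Michaelis–Menten fits.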

glucosamine-6-phosphate [2] = variants of: B1; assay: self-cleavage kobs at 2500 uM GlcN6P; higher = faster cleavage; RNA array
Procedure, shortened: as §1

glucosamine-6-phosphate [3] = variants of: B1; assay: self-cleavage kobs at 10000 uM GlcN6P; higher = faster cleavage; RNA array
Procedure, shortened: as §1

Row | Variant | self-cleavage kobs at 640 uM GlcN6P (glucosamine-6-phosphate [1]) [s⁻¹] | self-cleavage kobs at 2500 uM GlcN6P (glucosamine-6-phosphate [2]) [s⁻¹] | self-cleavage kobs at 10000 uM GlcN6P (glucosamine-6-phosphate [3]) [s⁻¹]
1 | A12C A52U C71U | 4.93e-05 ± 1.4e-05 | 0.000116 ± 2.4e-05 | –
2 | C10A A12C G66U | < 1e-05 | < 1e-05 | –
3 | C11G G41U A48G A52C | < 1e-05 | < 1e-05 | –
4 | G9U U31A | < 1e-05 | < 1e-05 | < 1e-05
5 | A12G A39G C70G | 0.00011 ± 3.5e-05 | – | –
6 | G7U G41A U69G | < 1e-05 | – | –
7 | G9C A12G G29A | < 1e-05 | – | –
8 | G13U A39U A48U G51A U55G C70A | < 1e-05 | – | –
9 | G7A G37C A39U U47G | < 1e-05 | – | –
10 | G9A G35U U47A C70U | < 1e-05 | < 1e-05 | –
11 | C10G C11G A33U C68G | 4.85e-05 ± 2.2e-05 | 9.09e-05 ± 3.3e-05 | –
12 | G7U C16A G37U U45G | < 1e-05 | – | –
13 | C10G A36C G60A | < 1e-05 | – | –
14 | A6U G37C G40A | < 1e-05 | < 1e-05 | –
15 | C11A G35A G63U A64C | < 1e-05 | < 1e-05 | –
16 | C11A G38A U47C | < 1e-05 | – | –
17 | G9C A64U G66C C70U C71U | < 1e-05 | – | –
18 | G9U A42U A48C C50G G63C C67U | < 1e-05 | – | –
19 | G13U G29U A39G | 0.000115 ± 2.8e-05 | 7.21e-05 ± 2.3e-05 | –
20 | C10U C11G A14G C16A G41A G51U | < 1e-05 | – | –
21 | C8G G9U G51C | < 1e-05 | – | –
22 | C8G A14C G63A | < 1e-05 | < 1e-05 | –
23 | C11G G13C G38C C58A | < 1e-05 | < 1e-05 | –

Row | Variant | self-cleavage kobs at 640 uM GlcN6P (glucosamine-6-phosphate [1]) [s⁻¹] | self-cleavage kobs at 2500 uM GlcN6P (glucosamine-6-phosphate [2]) [s⁻¹] | self-cleavage kobs at 10000 uM GlcN6P (glucosamine-6-phosphate [3]) [s⁻¹]
24 | G7A U31G C67U | < 1e-05 | – | –
25 | C8U U47C C67G | < 1e-05 | – | –
26 | G9U A15C C67U | < 1e-05 | – | –
27 | G13A G37A G66C | < 1e-05 | – | –
28 | G9A G51U A52C | < 1e-05 | < 1e-05 | –
29 | G9C C16G G38U U65A | < 1e-05 | < 1e-05 | –
30 | C8A G32U U45G A48G C71A | < 1e-05 | – | –
31 | G9A G37A U56G | < 1e-05 | – | –
32 | A6G U31C G59A | < 1e-05 | – | –
33 | C11U U56A C70G | 0.000217 ± 5.8e-05 | 0.000145 ± 3e-05 | –
34 | G9U G60A G66U | < 1e-05 | – | –
35 | G7A A15U U56G C58A | < 1e-05 | – | –
36 | C8U A36C A48G U49C | < 1e-05 | < 1e-05 | –
37 | C11G C16A C50G U65G | 0.000148 ± 5.2e-05 | – | –
38 | C11A U56A C70U C71A | 0.000256 ± 7.9e-05 | – | –
39 | C10U A52U C67A C68A U69G | 8.14e-05 ± 3.2e-05 | – | –
40 | C11G G29C A52G U55A C58A | < 1e-05 | < 1e-05 | < 1e-05
41 | A12C G29A G43U C71G | < 1e-05 | < 1e-05 | –
42 | A12C U49A A52C | < 1e-05 | – | –
43 | C10U C16U G63U | < 1e-05 | – | < 1e-05
44 | G7U C61U C68G | 0.00114 ± 0.00049 | – | –
45 | G7C C58G | < 1e-05 | – | –
46 | A14C A42G G66A | 0.000473 ± 0.00012 | – | 0.00177 ± 0.0006

Row | Variant | self-cleavage kobs at 640 uM GlcN6P (glucosamine-6-phosphate [1]) [s⁻¹] | self-cleavage kobs at 2500 uM GlcN6P (glucosamine-6-phosphate [2]) [s⁻¹] | self-cleavage kobs at 10000 uM GlcN6P (glucosamine-6-phosphate [3]) [s⁻¹]
47 | G13U C50A A64U U65G | < 1e-05 | < 1e-05 | –
48 | G13U G41U A52C | < 1e-05 | – | –
49 | C8U C10U A14U G43A | < 1e-05 | < 1e-05 | –
50 | G13U A39G C67A | 9.82e-05 ± 3.9e-05 | – | –
51 | C8U U45A A48U C50U | < 1e-05 | < 1e-05 | –
52 | G9C G29A G32A | < 1e-05 | < 1e-05 | –
53 | G7A C11A C34U A36C U45A | < 1e-05 | < 1e-05 | < 1e-05
54 | G7A A12C A42C U49C | < 1e-05 | – | –
55 | C8A C11U G13A C71U | < 1e-05 | < 1e-05 | –
56 | C10U A15G G37A G38C A53U | < 1e-05 | – | –
57 | G13C G43C A48U | < 1e-05 | < 1e-05 | –
58 | A12U C67U C71G | 7.19e-05 ± 2.7e-05 | 6.07e-05 ± 1.3e-05 | 4.02e-05 ± 2e-05
59 | G13C G29C G44U C50A G62C | < 1e-05 | < 1e-05 | < 1e-05
60 | C11A G37C G62A | < 1e-05 | – | –
61 | A6U A36C G51C | < 1e-05 | < 1e-05 | –
62 | C10U G38C G40A U55G | < 1e-05 | < 1e-05 | < 1e-05
63 | G13A U56A C67A U69G | 0.000128 ± 3.8e-05 | – | –
64 | C8A A36U U45C U57A | < 1e-05 | – | –
65 | C8U A12U G37U C61A A64U C67G | 0.000544 ± 0.00022 | – | –
66 | A12G G13U G62A | < 1e-05 | – | –
67 | A12G G66C C68A | 6.5e-05 ± 2.5e-05 | – | –
68 | C11G A42U G63U | < 1e-05 | – | –
